For test [1], the target named is Human FcRn (α-chain and β2m) on stably transfected MDCK cells (human) (UniProt P55899). The experiment in a line: flow cytometry on cells.
Test [2] has as its target Cynomolgus monkey FcRn (α-chain and β2m) on stably transfected MDCK cells (cynomolgus monkey) (UniProt Q8SPV9). The experiment in a line: flow cytometry on cells. On the technique in general: Flow cytometry measures light scatter and fluorescence of single cells or particles in a stream.
For test [3], the target named is Human FcRn (α-chain and β2m) on stably transfected MDCK cells (human) (UniProt P55899). The experiment in a line: flow cytometry on cells. This is another data set of the same source.
For test [4], the target named is Rozanolixizumab (1519.g57 IgG4P). Briefly: SPR.
Test [5] has the same target. The experiment in a line: SPR. This is another data set of the same source. Background: SPR reads the build-up and loss of mass on a sensor chip optically.
Test [6] shares this target. Briefly: SPR. This is another data set of the same source.

Like-named read-outs stand apart in the source and are kept apart here.

Sequence of UniProt Q8SPV9 (Q8SPV9 24-365, chain 1 of 2): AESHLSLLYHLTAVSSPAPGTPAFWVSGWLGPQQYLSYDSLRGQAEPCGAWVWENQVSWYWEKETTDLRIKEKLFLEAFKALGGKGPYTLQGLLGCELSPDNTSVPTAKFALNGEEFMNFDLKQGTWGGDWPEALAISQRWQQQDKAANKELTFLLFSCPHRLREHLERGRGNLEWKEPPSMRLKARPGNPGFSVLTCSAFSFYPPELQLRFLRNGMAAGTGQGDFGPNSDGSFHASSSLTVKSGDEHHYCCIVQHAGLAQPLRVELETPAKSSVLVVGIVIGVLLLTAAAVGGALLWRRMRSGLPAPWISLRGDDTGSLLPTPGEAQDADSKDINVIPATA
Sequence of UniProt Q8SPV9 (Q8SPW0 21-119, chain 2 of 2, further chain): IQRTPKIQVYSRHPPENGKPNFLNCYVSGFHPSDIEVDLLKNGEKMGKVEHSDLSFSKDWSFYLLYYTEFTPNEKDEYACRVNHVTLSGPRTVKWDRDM

As for “Rozanolixizumab (1519.g57 IgG4P) (antibody)”, the Kd (commonly the constant that tells how readily two partners part at equilibrium) stood at 0.43 nM in test [1], 1 nM in test [2] and 0.37 nM in test [3].

As for 1519.g57 Fab’, the figures for the Kd in test [1] and in test [3] were 0.42 nM and 0.44 nM, respectively.

In the case of “Human FcRn extracellular domain (α-chain with β2-microglobulin) (from UniProt P55899 24-297; P61769 21-119) (complex)”, the Kd in test [4] is below 0.023 nM; in test [5], 0.034 nM.

B1: Rat FcRn extracellular domain (α-chain with β2-microglobulin) (complex)
chain 1: AEPRLPLMYHLAAVSDLSTGLPSFWATGWLGAQQYLTYNNLRQEADPCGAWIWENQVSWYWEKETTDLKSKEQLFLEAIRTLENQINGTFTLQGLLGCELAPDNSSLPTAVFALNGEEFMRFNPRTGNWSGEWPETDIVGNLWMKQPEAARKESEFLLTSCPERLLGHLERGRQNLEWKEPPSMRLKARPGNSGSSVLTCAAFSFYPPELKFRFLRNGLASGSGNCSTGPNGDGSFHAWSLLEVKRGDEHHYQCQVEHEGLAQPLTVDLDSPARSS
chain 2: IQKTPQIQVYSRHPPENGKPNFLNCYVSQFHPPQIEIELLKNGKKIPNIEMSDLSFSKDWSFYILAHTEFTPTETDVYACRVKHVTLKEPKTVTWDRDM
For the molecule B1, in test [6], the Kd is 99 nM.
